First the molecules themselves.
B1: Metastasis-associated protein MTA3, residues 265 to 317; numbered along this chain, Q9BTC8 (parent)
chain: RDEMEEWSASEASLFEEALEKYGKDFNDIRQDFLPWKSLTSIIEYYYMWKTTD

± gives the uncertainty stated by the source.

This data set covers variants of B1. As to the kind of experiment: abundance fitness (aPCA) (normalised: wild type 0, dead -1); higher = more abundant; growth selection in yeast, the domain comes from the species named. The settings on record: Homo sapiens.
RDEMEEWSASEASLFEEALEKYGKDFNDIRQSFLPWKSLTSIIEYYYMWKTTD: the abundance fitness worked out at 1.09 ± 0.32.

As for RDEMEEWSASEASLFEEALEKYGKDFNDIRQDFLPNKSLTSIIEYYYMWKTTD, the abundance fitness is -0.177 ± 0.1. Take RDEMEEWSASEASLFEEALEKYGKDFNDIRQDFLPVKSLTSIIEYYYMWKTTD: the abundance fitness is -0.657 ± 0.076.

Regarding RDEMEEWSASEASLFEEALEKYGKDFNDIRQDFLPEKSLTSIIEYYYMWKTTD, the abundance fitness was -0.884 ± 0.3. To RDEMEEWSASEASLFEEALEKYGKDFNDIRQDFLPIKSLTSIIEYYYMWKTTD belongs -0.874 ± 0.11; to RDEMEEWSASEASLFEEALEKYGKDFNDIRQDFLPHKSLTSIIEYYYMWKTTD, -0.239 ± 0.069; to RDEMEEWSASEASLFEEALEKYGKDFNDIRQDFLPTKSLTSIIEYYYMWKTTD, -0.696 ± 0.084. To RDEMEEWSASEASLFEEALEKYGKDFNDIRQDFLPGKSLTSIIEYYYMWKTTD belongs -0.484 ± 0.092.

As for RDEMEEWSASEASLFEEALEKYGKDFNDIRQDFLPQKSLTSIIEYYYMWKTTD, the abundance fitness is -0.422 ± 0.17. To RDEMEEWSASEASLFEEALEKYGKDFNDIRQDFLPKKSLTSIIEYYYMWKTTD belongs -0.217 ± 0.12. To RDEMEEWSASEASLFEEALEKYGKDFNDIRQDFLPMKSLTSIIEYYYMWKTTD belongs -0.677 ± 0.11; to RDEMEEWSASEASLFEEALEKYGKDFNDIRQDFLPLKSLTSIIEYYYMWKTTD, -0.749 ± 0.082.

Turning to RDEMEEWSASEASLFEEALEKYGKDFNDIRQDFLPRKSLTSIIEYYYMWKTTD, the abundance fitness was -0.58 ± 0.091. To RDEMEEWSASEASLFEEALEKYGKDFNDIRQDFLPAKSLTSIIEYYYMWKTTD belongs -0.788 ± 0.08. In the case of RDEMEEWSASEASLFEEALEKYGKDFNDIRQDFLPYKSLTSIIEYYYMWKTTD, the abundance fitness is -0.615 ± 0.082. To RDEMEEWSASEASLFEEALEKYGKDFNDIRQDFLPSKSLTSIIEYYYMWKTTD belongs -0.645 ± 0.083; to RDEMEEWSASEASLFEEALEKYGKDFNDIRQDFLPCKSLTSIIEYYYMWKTTD, -0.733 ± 0.092; to RDEMEEWSASEASLFEEALEKYGKDFYDIRQDFLPWKSLTSIIEYYYMWKTTD, -0.305 ± 0.49. To RDEMEEWSASEASLFEEALEKYGKDFWDIRQDFLPWKSLTSIIEYYYMWKTTD belongs -0.635 ± 0.27; to RDEMEEWSASEASLFEEALEKYGKDFDDIRQDFLPWKSLTSIIEYYYMWKTTD, 0.074 ± 0.15. To RDEMEEWSASEASLFEEALEKYGKDFMDIRQDFLPWKSLTSIIEYYYMWKTTD belongs -0.464 ± 0.13; to RDEMEEWSASEASLFEEALEKYGKDFIDIRQDFLPWKSLTSIIEYYYMWKTTD, 0.743 ± 0.18. On to RDEMEEWSASEASLFEEALEKYGKDFLDIRQDFLPWKSLTSIIEYYYMWKTTD, for which the abundance fitness was -0.602 ± 0.22. To RDEMEEWSASEASLFEEALEKYGKDFVDIRQDFLPWKSLTSIIEYYYMWKTTD belongs -0.246 ± 0.09; to RDEMEEWSASEASLFEEALEKYGKDFQDIRQDFLPWKSLTSIIEYYYMWKTTD, -0.075 ± 0.31; to RDEMEEWSASEASLFEEALEKYGKDFSDIRQDFLPWKSLTSIIEYYYMWKTTD, 0.037 ± 0.15. To RDEMEEWSASEASLFEEALEKYGKDFEDIRQDFLPWKSLTSIIEYYYMWKTTD belongs 0.431 ± 0.19; to RDEMEEWSASEASLFEEALEKYGKDFADIRQDFLPWKSLTSIIEYYYMWKTTD, -0.015 ± 0.22.

As for RDEMEEWSASEASLFEEALEKYGKDFTDIRQDFLPWKSLTSIIEYYYMWKTTD, the abundance fitness is -0.148 ± 0.35. To RDEMEEWSASEASLFEEALEKYDKDFNDIRQDFLPWKSLTSIIEYYYMWKTTD belongs -0.558 ± 0.19; to RDEMEEWSASEASLFEEALEKYTKDFNDIRQDFLPWKSLTSIIEYYYMWKTTD, -0.92 ± 0.22. To RDEMEEWSASEASLFEEALEKYHKDFNDIRQDFLPWKSLTSIIEYYYMWKTTD belongs -0.784 ± 0.22; to RDEMEEWSASEASLFEEALEKYPKDFNDIRQDFLPWKSLTSIIEYYYMWKTTD, -0.81 ± 0.16; to RDEMEEWSASEASLFEEALEKYSKDFNDIRQDFLPWKSLTSIIEYYYMWKTTD, -0.792 ± 0.099. For RDEMEEWSASEASLFEEALEKYNKDFNDIRQDFLPWKSLTSIIEYYYMWKTTD, the abundance fitness was -0.638 ± 0.19. In the case of RDEMEEWSASEASLFEEALEKYLKDFNDIRQDFLPWKSLTSIIEYYYMWKTTD, the abundance fitness was -0.745 ± 0.086. To RDEMEEWSASEASLFEEALEKYMKDFNDIRQDFLPWKSLTSIIEYYYMWKTTD belongs -0.735 ± 0.11; to RDEMEEWSASEASLFEEALEKYWKDFNDIRQDFLPWKSLTSIIEYYYMWKTTD, -0.868 ± 0.29.

In the case of RDEMEEWSASEASLFEEALEKYYKDFNDIRQDFLPWKSLTSIIEYYYMWKTTD, the abundance fitness is -0.353 ± 0.36. For RDEMEEWSASEASLFEEALEKYEKDFNDIRQDFLPWKSLTSIIEYYYMWKTTD, the abundance fitness is -0.815 ± 0.26. RDEMEEWSASEASLFEEALEKYRKDFNDIRQDFLPWKSLTSIIEYYYMWKTTD: the abundance fitness is -0.844 ± 0.13. To RDEMEEWSASEASLFEEALEKYQKDFNDIRQDFLPWKSLTSIIEYYYMWKTTD belongs -0.759 ± 0.11; to RDEMEEWSASEASLFEEALEKYIKDFNDIRQDFLPWKSLTSIIEYYYMWKTTD, -1.01 ± 0.24. To RDEMEEWSASEASLFEEALEKYVKDFNDIRQDFLPWKSLTSIIEYYYMWKTTD belongs -0.888 ± 0.11. As for RDEMEEWSASEASLFEEALEKYKKDFNDIRQDFLPWKSLTSIIEYYYMWKTTD, the abundance fitness was -1.05 ± 0.35.

RDEMEEWSASEASLFEEALEKYGKDFNDIRQDLLPWKSLTSIIEYYYMWKTTD: the abundance fitness was -0.169 ± 0.46. With RDEMEEWSASEASLFEEALEKYGKDFNKIRQDFLPWKSLTSIIEYYYMWKTTD, the abundance fitness is 0.9 ± 0.12.

Turning to RDEMEEWSASEASLFEEALEKYGKDFNYIRQDFLPWKSLTSIIEYYYMWKTTD, the abundance fitness turned out to be 0.322 ± 0.22. To RDEMEEWSASEASLFEEALEKYGKDFNNIRQDFLPWKSLTSIIEYYYMWKTTD belongs -0.112 ± 0.33.
